In paper PMC3985463 one finds Kd data, which are given here for 1 molecule.

The data set has as its target His6-UP1 C43S/C175S (hnRNP A1 UP1 domain; ITC) (Homo sapiens, UniProt P09651 1-196, C43S;C175S). As to the kind of experiment: ITC. In general terms: Isothermal titration calorimetry measures the heat released or taken up as one component is titrated into another.

What is called Kd is the equilibrium constant for the complex coming apart. A higher Kd goes with weaker binding.

Chain of His6-UP1 C43S/C175S (hnRNP A1 UP1 domain; ITC) (P09651 1-196 C43S/C175S): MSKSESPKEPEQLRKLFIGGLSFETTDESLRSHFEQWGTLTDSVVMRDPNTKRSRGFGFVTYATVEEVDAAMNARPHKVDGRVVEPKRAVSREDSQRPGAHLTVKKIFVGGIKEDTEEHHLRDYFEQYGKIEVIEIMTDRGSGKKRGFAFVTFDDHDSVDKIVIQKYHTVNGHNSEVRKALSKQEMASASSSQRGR

Take GAUUAG (ssRNA) [ESS3b loop]: the Kd was determined as 4.17 ± 0.421 µM.
